Data from patent US20110300138A1 (published 2011).

Tests used:
Assay in all cases: cell-based or functional assay
[1] = molecular target: TSHR with Thr104 mutated to Ala (expressed in CHO cells) (human) (UniProt P16473)
[2] = molecular target: wild type TSHR (human TSH receptor) expressed in CHO cells (human) (UniProt P16473)
[3] = molecular target: TSHR with Lys183 mutated to Ala expressed in CHO cells (human) (UniProt P16473)

- % inhibition of TSH stimulation; TSH (2), run at the end of assay [1]: 10%
- Cyclic AMP produced (pmol/mL), TSH 0.01 ng/mL, Experiment 1 [1]: 2.58 pmol/mL
- Cyclic AMP produced (pmol/mL), TSH 0.01 ng/mL, Experiment 2 [1]: 4.28 pmol/mL
- Cyclic AMP produced (pmol/mL), TSH 0.03 ng/mL, Experiment 1 [1]: 3.2 pmol/mL
- Cyclic AMP produced (pmol/mL), TSH 0.03 ng/mL, Experiment 2 [1]: 5.71 pmol/mL
- Cyclic AMP produced (pmol/mL), TSH 0.1 ng/mL, Experiment 1 [1]: 3.64 pmol/mL
- Cyclic AMP produced (pmol/mL), TSH 0.1 ng/mL, Experiment 2 [1]: 9.8 pmol/mL
- Cyclic AMP produced (pmol/mL), TSH 0.3 ng/mL, Experiment 1 [1]: 5.38 pmol/mL
- Cyclic AMP produced (pmol/mL), TSH 0.3 ng/mL, Experiment 2 [1]: 35.7 pmol/mL
- Cyclic AMP produced (pmol/mL), TSH 1 ng/mL, Experiment 1 [1]: 15.8 pmol/mL
- Cyclic AMP produced (pmol/mL), TSH 1 ng/mL, Experiment 2 [1]: 57.1 pmol/mL
- Cyclic AMP produced (pmol/mL), TSH 3 ng/mL, Experiment 1 [1]: 34.5 pmol/mL
- Cyclic AMP produced (pmol/mL), TSH 3 ng/mL, Experiment 2 [1]: 58.5 pmol/mL
- Cyclic AMP produced; TSH 3 ng/mL alone [1]: 63.7 pmol/mL
- Cyclic AMP produced; TSH (2) 3 ng/mL, run at the end of assay [1]: 57 pmol/mL
- Mutated/Wild type (%), TSH 0.01 ng/mL, Experiment 1 [1]: 188%
- Mutated/Wild type (%), TSH 0.01 ng/mL, Experiment 2 [1]: 204%
- Mutated/Wild type (%), TSH 0.03 ng/mL, Experiment 1 [1]: 203%
- Mutated/Wild type (%), TSH 0.03 ng/mL, Experiment 2 [1]: 127%
- Mutated/Wild type (%), TSH 0.1 ng/mL, Experiment 1 [1]: 199%
- Mutated/Wild type (%), TSH 0.1 ng/mL, Experiment 2 [1]: 95%
- Mutated/Wild type (%), TSH 0.3 ng/mL, Experiment 1 [1]: 168%
- Mutated/Wild type (%), TSH 0.3 ng/mL, Experiment 2 [1]: 100%
- Mutated/Wild type (%), TSH 1 ng/mL, Experiment 1 [1]: 99%
- Mutated/Wild type (%), TSH 1 ng/mL, Experiment 2 [1]: 79%
- Mutated/Wild type (%), TSH 3 ng/mL, Experiment 1 [1]: 72%
- Mutated/Wild type (%), TSH 3 ng/mL, Experiment 2 [1]: 74%
- Mutated/wild type (%) of cyclic AMP produced; TSH 3 ng/mL alone [1]: 76%
- Mutated/wild type (%) of cyclic AMP produced; TSH (2) 3 ng/mL, run at the end of assay [1]: 68%
- % inhibition of TSH stimulation; TSH (2), run at the end of assay [2]: 0%
- % inhibition of TSH stimulation; TSH (2), run at the end of assay; Experiment 1 [2]: 8%
- % inhibition of TSH stimulation; TSH (2), run at the end of assay; Experiment 2 [2]: 0%
- Cyclic AMP produced (pmol/mL), TSH 0.01 ng/mL [2]: 2.45 pmol/mL
- Cyclic AMP produced (pmol/mL), TSH 0.01 ng/mL, Experiment 1 [2]: 1.86 pmol/mL
- Cyclic AMP produced (pmol/mL), TSH 0.01 ng/mL, Experiment 2 [2]: 2.49 pmol/mL
- Cyclic AMP produced (pmol/mL), TSH 0.03 ng/mL [2]: 4.78 pmol/mL
- Cyclic AMP produced (pmol/mL), TSH 0.03 ng/mL, Experiment 1 [2]: 3.32 pmol/mL
- Cyclic AMP produced (pmol/mL), TSH 0.03 ng/mL, Experiment 2 [2]: 5.12 pmol/mL
- Cyclic AMP produced (pmol/mL), TSH 0.1 ng/mL [2]: 16.2 pmol/mL
- Cyclic AMP produced (pmol/mL), TSH 0.1 ng/mL, Experiment 1 [2]: 14.6 pmol/mL
- Cyclic AMP produced (pmol/mL), TSH 0.1 ng/mL, Experiment 2 [2]: 13.7 pmol/mL
- Cyclic AMP produced (pmol/mL), TSH 0.3 ng/mL [2]: 44.3 pmol/mL
- Cyclic AMP produced (pmol/mL), TSH 0.3 ng/mL, Experiment 1 [2]: 48.5 pmol/mL
- Cyclic AMP produced (pmol/mL), TSH 0.3 ng/mL, Experiment 2 [2]: 39.9 pmol/mL
- Cyclic AMP produced (pmol/mL), TSH 1 ng/mL [2]: 77.2 pmol/mL
- Cyclic AMP produced (pmol/mL), TSH 1 ng/mL, Experiment 1 [2]: 91.2 pmol/mL
- Cyclic AMP produced (pmol/mL), TSH 1 ng/mL, Experiment 2 [2]: 74.3 pmol/mL
- Cyclic AMP produced (pmol/mL), TSH 3 ng/mL [2]: 95.5 pmol/mL
- Cyclic AMP produced (pmol/mL), TSH 3 ng/mL, Experiment 1 [2]: 119 pmol/mL
- Cyclic AMP produced (pmol/mL), TSH 3 ng/mL, Experiment 2 [2]: 88.3 pmol/mL
- Cyclic AMP produced (pmol/mL), wild type TSHR, TSH 0.01 ng/mL [2]: 2.48 pmol/mL
- Cyclic AMP produced (pmol/mL), wild type TSHR, TSH 0.01 ng/mL, Experiment 1 [2]: 2.6 pmol/mL
- Cyclic AMP produced (pmol/mL), wild type TSHR, TSH 0.01 ng/mL, Experiment 2 [2]: 3.89 pmol/mL
- Cyclic AMP produced (pmol/mL), wild type TSHR, TSH 0.03 ng/mL [2]: 4.62 pmol/mL
- Cyclic AMP produced (pmol/mL), wild type TSHR, TSH 0.03 ng/mL, Experiment 1 [2]: 4.27 pmol/mL
- Cyclic AMP produced (pmol/mL), wild type TSHR, TSH 0.03 ng/mL, Experiment 2 [2]: 5.52 pmol/mL
- Cyclic AMP produced (pmol/mL), wild type TSHR, TSH 0.1 ng/mL [2]: 17.6 pmol/mL
- Cyclic AMP produced (pmol/mL), wild type TSHR, TSH 0.1 ng/mL, Experiment 1 [2]: 10.9 pmol/mL
- Cyclic AMP produced (pmol/mL), wild type TSHR, TSH 0.1 ng/mL, Experiment 2 [2]: 13.3 pmol/mL
- Cyclic AMP produced (pmol/mL), wild type TSHR, TSH 0.3 ng/mL [2]: 40.4 pmol/mL
- Cyclic AMP produced (pmol/mL), wild type TSHR, TSH 0.3 ng/mL, Experiment 1 [2]: 32.3 pmol/mL
- Cyclic AMP produced (pmol/mL), wild type TSHR, TSH 0.3 ng/mL, Experiment 2 [2]: 35.4 pmol/mL
- Cyclic AMP produced (pmol/mL), wild type TSHR, TSH 1 ng/mL [2]: 92.5 pmol/mL
- Cyclic AMP produced (pmol/mL), wild type TSHR, TSH 1 ng/mL, Experiment 1 [2]: 85 pmol/mL
- Cyclic AMP produced (pmol/mL), wild type TSHR, TSH 1 ng/mL, Experiment 2 [2]: 82.1 pmol/mL
- Cyclic AMP produced (pmol/mL), wild type TSHR, TSH 3 ng/mL [2]: 104 pmol/mL
- Cyclic AMP produced (pmol/mL), wild type TSHR, TSH 3 ng/mL, Experiment 1 [2]: 124 pmol/mL
- Cyclic AMP produced (pmol/mL), wild type TSHR, TSH 3 ng/mL, Experiment 2 [2]: 91.7 pmol/mL
- Cyclic AMP produced, wild type TSHR, TSH 0.01 ng/mL [2]: 1.41 pmol/mL
- Cyclic AMP produced, wild type TSHR, TSH 0.03 ng/mL [2]: 1.99 pmol/mL
- Cyclic AMP produced, wild type TSHR, TSH 0.1 ng/mL [2]: 5.54 pmol/mL
- Cyclic AMP produced, wild type TSHR, TSH 0.3 ng/mL [2]: 16.3 pmol/mL
- Cyclic AMP produced, wild type TSHR, TSH 1 ng/mL [2]: 44.2 pmol/mL
- Cyclic AMP produced, wild type TSHR, TSH 3 ng/mL [2]: 53.9 pmol/mL
- Cyclic AMP produced (pmol/mL), 0.01 ng/mL TSH, Experiment 1 [3]: 4.95 pmol/mL
Substance: TSH (ligand)
